# Experimental data taken from publication PMC4275594 (Nature Communications, 2014).
# Target: C-terminal 6xHis tagged IL-18Rβ extracellular domains (residues 15-356), for SPR (human) (UniProt O95256)
# Experiment: SPR; BIAcore 3000, 25 °C, C-terminal 6xHis IL-18Rβ immobilised (~100 RU) on an NTA sensor chip, un-tagged IL-18Rα saturated with 500 nM IL-18 as analyte in HBS-P
# Details: not given
row,Molecule,Kd [nM]
1,IL-18 D110A/IL-18Rα WT complex (SPR analyte) (from UniProt Q13478 20-329),56
2,IL-18 G145A/IL-18Rα WT complex (SPR analyte) (from UniProt Q13478 20-329),28
3,IL-18 R147A/IL-18Rα WT complex (SPR analyte) (from UniProt Q13478 20-329),57

# Target: human IL-18 receptor beta extracellular domain (residues 15-356), C-terminal 6xHis, wild type, from silkworm (human) (UniProt O95256)
# Experiment: SPR; BIAcore 3000, 25 °C; C-terminal 6xHis IL-18Rβ (wild type or mutant) immobilised at about 100 RU on a Ni-NTA sensor chip; un-tagged IL-18Rα saturated with 500 nM IL-18 (preformed binary complex) injected as analyte in HBS-P; triplicate
# Details: not given
Molecule,Kd [nM],kon [M⁻¹ s⁻¹]
preformed binary complex of IL-18 K79A and un-tagged IL-18Rα wild type extracellular domain (from UniProt Q13478 20-329),13,13000
preformed binary complex of IL-18 K84A and un-tagged IL-18Rα wild type extracellular domain (from UniProt Q13478 20-329),18,10000
preformed binary complex of IL-18 R147A and un-tagged IL-18Rα wild type extracellular domain (from UniProt Q13478 20-329),–,69000

# Target: T1, IL-18 WT/IL-18Rα WT complex (SPR analyte) (human, UniProt Q14116 37-193; Q13478 20-329)
# T1 construct: human interleukin-18, mature IL-18 (residues 1-157); numbers count on: the mature protein; human IL-18 receptor α, extracellular domains, residues 20-329 of NM_003855, printed as un-tagged; also called IL-18/IL-18Rα binary complex; IL-18 WT(control); source: IL-18: E. coli BL21(DE3), purified; IL-18Rα: silkworm larvae haemolymph, purified; un-tagged IL-18Rα saturated with 500 nM IL-18
# Experiment: SPR; BIAcore 3000, 25 °C, C-terminal 6xHis IL-18Rβ immobilised (~100 RU) on an NTA sensor chip, un-tagged IL-18Rα saturated with 500 nM IL-18 as analyte in HBS-P
# Details: both partners purified
row,Molecule,Kd [nM]
1,"IL-18Rβ E210A, C-terminal 6xHis tagged extracellular domains (residues 15-356), for SPR (domain or fragment, human, UniProt O95256-1 15-356, looked up, human IL-18 receptor β, extracellular domains, residues 15-356 of NM_003853; In the luciferase reporter assay the same mutation stood in full-length IL-18Rβ (pcDNA3.1+) expressed in HEK293 cells; source: silkworm (B. mori) larvae, BmNPV bacmid, haemolymph, purified as from Sf9; not shown: 6xHis, C-terminal, kept) ERIKGFNISGCSTKKLLWTYSTRSEEEFVLFCDLPEPQKSHFCHRNRLSPKQVPEHLPFMGSNDLSDVQWYQQPSNGDPLEDIRKSYPHIIQDKCTLHFLTPGVNNSGSYICRPKMIKSPYDVACCVKMILEVKPQTNASCEYSASHKQDLLLGSTGSISCPSLSCQSDAQSPAVTWYKNGKLLSVERSNRIVVDAVYDYHQGTYVCDYTQSDTVSSWTVRAVVQVRTIVGDTKLKPDILDPVEDTLEVELGKPLTISCKARFGFERVFNPVIKWYIKDSDLEWEVSVPEAKSIKSTLKDEIIERNIILEKVTQRDLRRKFVCFVQNSIGNTTQSVQLKEKR",327
2,"IL-18Rβ K313A, C-terminal 6xHis tagged extracellular domains (residues 15-356), for SPR (domain or fragment, human, UniProt O95256-1 15-356, looked up, human IL-18 receptor β, extracellular domains, residues 15-356 of NM_003853; In the luciferase reporter assay the same mutation stood in full-length IL-18Rβ (pcDNA3.1+) expressed in HEK293 cells; source: silkworm (B. mori) larvae, BmNPV bacmid, haemolymph, purified as from Sf9; not shown: 6xHis, C-terminal, kept) ERIKGFNISGCSTKKLLWTYSTRSEEEFVLFCDLPEPQKSHFCHRNRLSPKQVPEHLPFMGSNDLSDVQWYQQPSNGDPLEDIRKSYPHIIQDKCTLHFLTPGVNNSGSYICRPKMIKSPYDVACCVKMILEVKPQTNASCEYSASHKQDLLLGSTGSISCPSLSCQSDAQSPAVTWYKNGKLLSVERSNRIVVDEVYDYHQGTYVCDYTQSDTVSSWTVRAVVQVRTIVGDTKLKPDILDPVEDTLEVELGKPLTISCKARFGFERVFNPVIKWYIKDSDLEWEVSVPEAKSIKSTLADEIIERNIILEKVTQRDLRRKFVCFVQNSIGNTTQSVQLKEKR",109
3,"IL-18Rβ L167A, C-terminal 6xHis tagged extracellular domains (residues 15-356), for SPR (domain or fragment, human, UniProt O95256-1 15-356, looked up, human IL-18 receptor β, extracellular domains, residues 15-356 of NM_003853; source: silkworm (B. mori) larvae, BmNPV bacmid, haemolymph, purified as from Sf9; not shown: 6xHis, C-terminal, kept) ERIKGFNISGCSTKKLLWTYSTRSEEEFVLFCDLPEPQKSHFCHRNRLSPKQVPEHLPFMGSNDLSDVQWYQQPSNGDPLEDIRKSYPHIIQDKCTLHFLTPGVNNSGSYICRPKMIKSPYDVACCVKMILEVKPQTNASCEYSASHKQDLLAGSTGSISCPSLSCQSDAQSPAVTWYKNGKLLSVERSNRIVVDEVYDYHQGTYVCDYTQSDTVSSWTVRAVVQVRTIVGDTKLKPDILDPVEDTLEVELGKPLTISCKARFGFERVFNPVIKWYIKDSDLEWEVSVPEAKSIKSTLKDEIIERNIILEKVTQRDLRRKFVCFVQNSIGNTTQSVQLKEKR",33
4,"IL-18Rβ Y214A, C-terminal 6xHis tagged extracellular domains (residues 15-356), for SPR (domain or fragment, human, UniProt O95256-1 15-356, looked up, human IL-18 receptor β, extracellular domains, residues 15-356 of NM_003853; source: silkworm (B. mori) larvae, BmNPV bacmid, haemolymph, purified as from Sf9; not shown: 6xHis, C-terminal, kept) ERIKGFNISGCSTKKLLWTYSTRSEEEFVLFCDLPEPQKSHFCHRNRLSPKQVPEHLPFMGSNDLSDVQWYQQPSNGDPLEDIRKSYPHIIQDKCTLHFLTPGVNNSGSYICRPKMIKSPYDVACCVKMILEVKPQTNASCEYSASHKQDLLLGSTGSISCPSLSCQSDAQSPAVTWYKNGKLLSVERSNRIVVDEVYDAHQGTYVCDYTQSDTVSSWTVRAVVQVRTIVGDTKLKPDILDPVEDTLEVELGKPLTISCKARFGFERVFNPVIKWYIKDSDLEWEVSVPEAKSIKSTLKDEIIERNIILEKVTQRDLRRKFVCFVQNSIGNTTQSVQLKEKR",50

# Target: human IL-18 receptor alpha extracellular domain (residues 20-329), C-terminal 6xHis, wild type, from silkworm (human) (UniProt Q13478)
# Experiment: SPR; BIAcore 3000, 25 °C; C-terminal 6xHis IL-18Rα (wild type or mutant) immobilised at about 200 RU on a Ni-NTA sensor chip; IL-18 (wild type or mutant) injected as analyte in HBS-P (10 mM HEPES-Na pH 7.4, 150 mM NaCl, 0.01% P-20), 30 µl/min, 180 s association, 360 s dissociation; triplicate
# Details: not given
# Chain of human IL-18 receptor alpha extracellular domain (residues 20-329), C-terminal 6xHis, wild type, from silkworm (human) (Q13478 20-329): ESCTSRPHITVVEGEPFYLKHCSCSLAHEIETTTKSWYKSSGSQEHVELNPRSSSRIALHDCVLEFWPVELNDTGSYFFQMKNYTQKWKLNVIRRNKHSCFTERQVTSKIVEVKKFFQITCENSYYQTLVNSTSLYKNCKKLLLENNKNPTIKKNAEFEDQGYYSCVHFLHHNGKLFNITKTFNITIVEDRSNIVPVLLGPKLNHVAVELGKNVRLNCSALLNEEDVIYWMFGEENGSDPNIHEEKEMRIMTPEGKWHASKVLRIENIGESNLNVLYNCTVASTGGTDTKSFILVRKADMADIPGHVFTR
Molecule,Kd [nM],kon [M⁻¹ s⁻¹]
"human interleukin-18, mature, D110A (ligand)",23,106000
"human interleukin-18, mature, G108A (ligand)",184,52000
"human interleukin-18, mature, G145A (ligand)",57,59000
"human interleukin-18, mature, H109A (ligand)",48,62000
"human interleukin-18, mature, K79A (ligand)",55,76000
"human interleukin-18, mature, K112A (ligand)",51,64000
"human interleukin-18, mature, M150A (ligand)",59,57000
"human interleukin-18, mature, R147A (ligand)",67,68000

# Target: T2, preformed binary complex of IL-18 wild type and un-tagged IL-18Rα wild type extracellular domain (human, UniProt Q14116 37-193; Q13478 20-329)
# T2 construct: interleukin-18, human, mature IL-18 (residues 1-157); numbers count on: the mature protein; IL-18 receptor alpha, human, extracellular domains, residues 20-329 of NM_003855; also called IL-18 WT/IL-18Rα WT complex; IL-18/IL-18Rα; source: IL-18: E. coli BL21(DE3), purified; IL-18Rα: silkworm larvae haemolymph, purified; un-tagged IL-18Rα saturated with 500 nM IL-18
# Experiment: SPR; BIAcore 3000, 25 °C; C-terminal 6xHis IL-18Rβ (wild type or mutant) immobilised at about 100 RU on a Ni-NTA sensor chip; un-tagged IL-18Rα saturated with 500 nM IL-18 (preformed binary complex) injected as analyte in HBS-P; triplicate
# Details: both partners purified
Molecule,kon [M⁻¹ s⁻¹],Kd [nM]
"human IL-18 receptor beta extracellular domain (residues 15-356), C-terminal 6xHis, E210A (receptor, UniProt O95256-1 15-356, looked up, IL-18 receptor beta, human, extracellular domains, residues 15-356 of NM_003853; also called IL-18Rβ E210A; source: silkworm (B. mori) larvae, BmNPV bacmid, haemolymph, purified (ion exchange, Ni-NTA, gel filtration); not shown: 6xHis, C-terminal, kept) ERIKGFNISGCSTKKLLWTYSTRSEEEFVLFCDLPEPQKSHFCHRNRLSPKQVPEHLPFMGSNDLSDVQWYQQPSNGDPLEDIRKSYPHIIQDKCTLHFLTPGVNNSGSYICRPKMIKSPYDVACCVKMILEVKPQTNASCEYSASHKQDLLLGSTGSISCPSLSCQSDAQSPAVTWYKNGKLLSVERSNRIVVDAVYDYHQGTYVCDYTQSDTVSSWTVRAVVQVRTIVGDTKLKPDILDPVEDTLEVELGKPLTISCKARFGFERVFNPVIKWYIKDSDLEWEVSVPEAKSIKSTLKDEIIERNIILEKVTQRDLRRKFVCFVQNSIGNTTQSVQLKEKR",71000,–
"human IL-18 receptor beta extracellular domain (residues 15-356), C-terminal 6xHis, K313A (receptor, UniProt O95256-1 15-356, looked up, IL-18 receptor beta, human, extracellular domains, residues 15-356 of NM_003853; also called IL-18Rβ K313A; source: silkworm (B. mori) larvae, BmNPV bacmid, haemolymph, purified (ion exchange, Ni-NTA, gel filtration); not shown: 6xHis, C-terminal, kept) ERIKGFNISGCSTKKLLWTYSTRSEEEFVLFCDLPEPQKSHFCHRNRLSPKQVPEHLPFMGSNDLSDVQWYQQPSNGDPLEDIRKSYPHIIQDKCTLHFLTPGVNNSGSYICRPKMIKSPYDVACCVKMILEVKPQTNASCEYSASHKQDLLLGSTGSISCPSLSCQSDAQSPAVTWYKNGKLLSVERSNRIVVDEVYDYHQGTYVCDYTQSDTVSSWTVRAVVQVRTIVGDTKLKPDILDPVEDTLEVELGKPLTISCKARFGFERVFNPVIKWYIKDSDLEWEVSVPEAKSIKSTLADEIIERNIILEKVTQRDLRRKFVCFVQNSIGNTTQSVQLKEKR",103000,–
"human IL-18 receptor beta extracellular domain (residues 15-356), C-terminal 6xHis, L167A (receptor, UniProt O95256-1 15-356, looked up, IL-18 receptor beta, human, extracellular domains, residues 15-356 of NM_003853; also called IL-18Rβ L167A; source: silkworm (B. mori) larvae, BmNPV bacmid, haemolymph, purified (ion exchange, Ni-NTA, gel filtration); not shown: 6xHis, C-terminal, kept) ERIKGFNISGCSTKKLLWTYSTRSEEEFVLFCDLPEPQKSHFCHRNRLSPKQVPEHLPFMGSNDLSDVQWYQQPSNGDPLEDIRKSYPHIIQDKCTLHFLTPGVNNSGSYICRPKMIKSPYDVACCVKMILEVKPQTNASCEYSASHKQDLLAGSTGSISCPSLSCQSDAQSPAVTWYKNGKLLSVERSNRIVVDEVYDYHQGTYVCDYTQSDTVSSWTVRAVVQVRTIVGDTKLKPDILDPVEDTLEVELGKPLTISCKARFGFERVFNPVIKWYIKDSDLEWEVSVPEAKSIKSTLKDEIIERNIILEKVTQRDLRRKFVCFVQNSIGNTTQSVQLKEKR",76000,–
"human IL-18 receptor beta extracellular domain (residues 15-356), C-terminal 6xHis, S169A-T170A (receptor, UniProt O95256-1 15-356, looked up, IL-18 receptor beta, human, extracellular domains, residues 15-356 of NM_003853; also called IL-18RβS169A-T170A; source: silkworm (B. mori) larvae, BmNPV bacmid, haemolymph, purified (ion exchange, Ni-NTA, gel filtration); not shown: 6xHis, C-terminal, kept) ERIKGFNISGCSTKKLLWTYSTRSEEEFVLFCDLPEPQKSHFCHRNRLSPKQVPEHLPFMGSNDLSDVQWYQQPSNGDPLEDIRKSYPHIIQDKCTLHFLTPGVNNSGSYICRPKMIKSPYDVACCVKMILEVKPQTNASCEYSASHKQDLLLGAAGSISCPSLSCQSDAQSPAVTWYKNGKLLSVERSNRIVVDEVYDYHQGTYVCDYTQSDTVSSWTVRAVVQVRTIVGDTKLKPDILDPVEDTLEVELGKPLTISCKARFGFERVFNPVIKWYIKDSDLEWEVSVPEAKSIKSTLKDEIIERNIILEKVTQRDLRRKFVCFVQNSIGNTTQSVQLKEKR",68000,77
"human IL-18 receptor beta extracellular domain (residues 15-356), C-terminal 6xHis, Y214A (receptor, UniProt O95256-1 15-356, looked up, IL-18 receptor beta, human, extracellular domains, residues 15-356 of NM_003853; also called IL-18Rβ Y214A; source: silkworm (B. mori) larvae, BmNPV bacmid, haemolymph, purified (ion exchange, Ni-NTA, gel filtration); not shown: 6xHis, C-terminal, kept) ERIKGFNISGCSTKKLLWTYSTRSEEEFVLFCDLPEPQKSHFCHRNRLSPKQVPEHLPFMGSNDLSDVQWYQQPSNGDPLEDIRKSYPHIIQDKCTLHFLTPGVNNSGSYICRPKMIKSPYDVACCVKMILEVKPQTNASCEYSASHKQDLLLGSTGSISCPSLSCQSDAQSPAVTWYKNGKLLSVERSNRIVVDEVYDAHQGTYVCDYTQSDTVSSWTVRAVVQVRTIVGDTKLKPDILDPVEDTLEVELGKPLTISCKARFGFERVFNPVIKWYIKDSDLEWEVSVPEAKSIKSTLKDEIIERNIILEKVTQRDLRRKFVCFVQNSIGNTTQSVQLKEKR",97000,–
